experiment: yeast display, Sf9 membrane polyspecificity reagent, FACS + sequencing; frameworks hold sequencing errors
In short: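 Galactose induction of a Saccharomyces cerevisiae BJ5465 synthetic nanobody display library ran 36–48 hours. The cells were then stained for 1 hour at 4 °C with 10% biotinylated, detergent-solubilized Sf9 membrane reagent, pulled down on streptavidin microbeads and FACS-sorted into low and high (top ~1%) gates on expression and reagent-binding fluorescence. Labels for polyreactivity follow the gate of origin.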

Sequence | polyreactivity (PSR sort gate)
QVQLVESGGGLVQAGGSLRLSCAASGRIFYYYAMGWSRQAPGKERELVAGISYSGGRTYYADSVKGRFTISRDNAKNTVYLQMNSLKPEDTAVYYCAAAYRGANYGYGFDYWGQGTQVTVSS | high polyreactivity
QVQLVESGGGLVQAGGSLRLTCAASGYTFLHYAMGWYRQPPGKERELVAAITHSGTRTYYADSVKGRFTISRDNAKNTVYLQMNSLKPEDTAVHYCAARGYGKYDYWGQGTQVTVSS | high polyreactivity
QVQLVESGGGLVQAGGSLRLSCAASGSIFDNYAMGWYRPAPGKERELVAVISSGGVSTSYADSVKGRFTISRDNAKNTVYLQMNSLKTEDTAVYYCAADGYYIGPYDYWGQGTQVNVSS | low polyreactivity
QVQLVESGGGLVQAGRSLRLSCAASGRTFYYYAMVWNRQAPGKERELVAAISWRSGSTYYADSVKGRFTISRDNAKNTLYLQMNSLKPEDTAVYYCATSVRFYWFADGYWGQGTQVTVSS | high polyreactivity
QVQLVESGGGLVQAGGSLRLSCAASGSIFTFNAMGWYRQAPGKEREFVAAITRSGGRTYYADSVKGRFTISRDNAKNTVYLQMNSLKPEDTAVYYCAARPRGKYDYWGQGTQVTVSS | high polyreactivity
QVQLVESGGGLVQAGGSLRLSCAASGFTFGWYAMGWYRPAPGKERELVAAITTSGGRTNYADSVKGRFTISRDNAKNTVYLQMNSLKPEDTAVYYCNADSPYYVGGFDYWGQGTQVTVSS | low polyreactivity
QVQLVESGGGLVQAGGSLRLSCVASGSISQTYAMGWYRQAPGKERELVAAISSSGASTYYADSVKGRFTISRDNAKNTVYLQMNSLKPEDTAVYYCNADKFRRYGYWGQGTQVTVSS | high polyreactivity
QVQLVESGGGLVQAGGSLRLSCAASGFTFEENAMGWYRQAPGINYSGASTYYADSVKGRFTISRDKAKNTVYLQMNSLKPDDTAVYYCAADVVAQMNYWGQGTQVTVSS | low polyreactivity
QVQLVESGGGLVQAGGSLRLSCAASGSTFTYYAMGWYRQAPGKERELVAAITWSGGSTYYADSVKGRFTISRDNAKNTVYLQMNSLKPEDTAVYYCNVYSIWGTYDYWGQGTQVTVSS | low polyreactivity
QVQLVESGGGLGQAGGSLRLSCAASGRIFYSYAMGWSRQAPGKESELVAAITESGGSTNYADSVKGRFTISRDNAKNTVYLQMNSLNPEDTAVFYCNARYKLTFNLYNYWGQGTQVTVSS | low polyreactivity
QVQLVESGGGLVQAGGILRLSCAASGSIFSFYAMGWYRQAPGKERELVAAITRSGGTYYADSVKGRFTISRDNAKNTVYLQMNSLKPEDTAVYYCAAQYWYYYIWWEYYYWGQGTQVTVSS | low polyreactivity
QVQLVESGGGLVQAGGSLRLSCAASGRIIYGYAMGWYRQAHGKERELVASITATYYADSVKGRFTISLDNSKNTVYLQMNSLIPEDTAVYYCNAYLSPKHPLSRPDPTFEGGYRGQGTQVTVSS | low polyreactivity
QVQLVESGGGLVQAGGSLRLSCAASGRIFGKYAMGWYRQAPGKERELVAANSRSCASTYYADSVKGRFTISRDNAKNTVYLQMNSLKPEDTAVYYCAAVPPYNYRFRVDYWGQGTQVTVSS | high polyreactivity
QVQLVESGGGLVQAGGSLRLSCAASGSIFRIYAMGWYRQAPGKERELVAGISKSGGSTYYADSVKGRFTISRDNAKNTVYLQMNSLKPEDTAVYYCNARRPSWGLDKYDYWGQGTQVTVSS | low polyreactivity
QDQLVESAGGIVQAGGRLRLSCAASGTLYINVMGWYRQSPGKERELVAAISSNGARTYYADSVKGRFTISRDNAKNTVYLQMNSLKPEDTAVYYCDASFYFYSLYGYWGQGTQVTVSS | high polyreactivity
QVPLVESGGGLVQGGGSLRLSCAASGSIFRGNAMGWYRQAPGKERELVAAISKSGGSTYYADSVKGRFTISRDNAKNTVYLHMNSLKPEDTAVYYCAARTTYLYGRYYWGQGTQVTVSS | low polyreactivity
QVQLVESGGGLVQAGGSLRLSCAASGSIFVHYAMGGYRQAPGKERELVAAISQRGGSTSYADSVKGRFTISRDNAKNTVYLQMNSLKPEDTAVYYCAAENWIGDYYWGQGTQVTVSS | low polyreactivity
QVQLVESGGALVQARGSLRLSCAASGRTFQIYAKGWDRQGHGKEMELVARITGVGSTNYADSVKGRFTISRDNAKNTVYLQMNSLKPEDTAVYYCAAYWILNNYEMYYWGQGTQVTVSS | low polyreactivity
QVQLVESGGGLVQAGGSLRLSCAASGFIFWQNAMGWSRQAPGKEREWVADISWSGGGSTYYADSVKGRFTISRDNAKNTVYLQMNSLKPADTALYYCAASQVYSYYGTYYSAYDYWGQGTQVTVSS | low polyreactivity
QVQLVESGGGLVQAGGRLRLSCAASGLTFGRYAMGWYRQAPGKERELVAVINGSGGNTYYADSVKGRFTISRDNAKNTVYLQMNSLKPEDTAVYYCAARRTVQYTLYYYPDYNYWGQGTQVTVSS | low polyreactivity
QVQLVESGGGLVQPGGSLRLSCAASGRILYYHAMAWYRQAPGKERELVARISSGGSTNYADSVKGRFTISRDNAKNTVYLQMNSLKPEDTAVSYCAVAKGGLAWGVGRGGRYDYWGQGTQVTVSS | low polyreactivity
QVQLVESGGGLVQAGGSLRLSCAASGSTLPTNAMLWYRQAPGKEREFVAAISDNGGSTYYADSVKGRFTISRDNAKNTVYLQMNSLKPEDTAVYYCAADNFGPEFYYWGQGTQVTVSS | low polyreactivity

Sequence | polyreactivity (PSR sort gate)
QVQLVESGGGLVQAGGSLRLSCAASGLTFGAYAMGWYRQAPGKEREFVAAITYSGGSTNYADSVKGRFTISRDNAKNTVYLQMISLKPEDTAVYYCNAGYYSPWAFYPYDYWGQGTQVTVSS | high polyreactivity
QVQLVESGGGLVQAGGSLRLSCAASGFTFQYSAMGWSRQAPGKERDVVAAIRSNGGSTYYADSVKGRFTISRDNAKNTVYLQMNSLKPEDTAVYYSAARAYKTYDWGQGTQVTVSS | high polyreactivity
QVQLVESGGGLVQAGGSLRLSCAASGRIFDTNAMGWYRQAPGKERELVAAISSGDTTNYADSVKGRFTISRDNAKNTVYLQMNSLKPEDTAVYYCAVYAISFGWSGWTYEDSWGQGTQVTVSS | low polyreactivity
QVQLVESGGGLVQAGGSLRLSCAASGRIFYYYAMGWYRQAPGKERELFADITWSGGSTYYADSVKGRFTISRDNAKNTVYLQMNSLKPEDTAVNYCNAVYFNYLLEYDYWGQGTQVTVSS | high polyreactivity
QVQLVESGGGLVQAGGSLRLSCAASGRIFLGYAMGWYRQAPGKERELVAAISAGGGSTYYADSVKGRFTISRDTAKNTVYLLMNSLKPEDTAVYYCAARRPHIPVKTYDYWGQGTQVTVSS | high polyreactivity
QLQLVESGRGLVQAGGSLRLSCAASVRTFTCYTMGSYRQAPGKEREFVAAIRKSGGSTYYADSVKGRFTISRDNAKNTVYLQMNSLKPEDTAVYYCAAERLYGYWKYIGYDWGQGTQVTVSS | high polyreactivity
QVQLVESGGGLVQAGGSLRLSCAASGSIFDSNAMGWYRQAPGKERELVAVITGSGGITYYADSVKGRFTISRDNAKNTVYLQMNRLKPEDTAVYYCYADYYLSEDGTWIYDYWGQGTQVTVSS | high polyreactivity
QVQLVESGGGLVQAGGSLRLSCAASGSTWVYAMGWYRQAPGKERELFAAITVSGGSTYYADSVKGRFTISRDNAKNTVYLQMNSQKPEDPAVYYCAAYDSYRKFKYLGQGTQVTVSS | high polyreactivity
QVQLVESGGGLVQAGCSLRLICAASALTFYHKAMGWYRPAPVKERELVAPISSSGDSTYSADSVKGRFTISHDNGKNTVYLQMNSLKPEYTAVYYCAADLGYYNARWYEYWGQGTQVTVSS | high polyreactivity
QVQLVESGGGLVQAGGSLRLSCAASGRIFSKYTMGWYIQAPGKEMELVAAISGSGTSTYYADSVKGRFTISRDNAKNTVYLQMNSLKPEDTAVYYCNAVKSWGHPGRYYWGQGTQVTVSS | high polyreactivity
QVQLVESGGGLVQAGGSLRLSCAASGSTLYVYAMGWYRQAPGKERELVAAITRGSRTSYADSVKGRFTISRDNAKNTVYLQMNSLKPEDTAVYYCNADTILWFLPPQKRDYWGQGTQVTVSS | low polyreactivity
QVQLVESGGGLVQAGGSLRLSCAASGSTFDDYAMGWYRQATGIERELVAAINNGGSTTYADSVKGRFTISRDNAKNTVYLQMNSLKPEDTAVYYCAKDSGAWEYDYWGQGTQVTVSS | low polyreactivity
QVQLVESGGGLVQAGGSLRLSCAASASTVSRYAMGWYRQAPGKEREVVAGISWSGGNTYSADSVKGRFTISRDNAKNTVYLQMNSLKPEDTAVYYCAADFLDYWGVYGWAEYEYWGQGTQVTVSS | low polyreactivity
QVQLVESGGGLVQAGGSLRLSCAASGSTFAEYVMGWYRQAPGKERELVAAISSGTSTYYADSVKGRFTISRDNAKNTVYLQMNSLKPEDTAVYYCNDDLYHTWYKPEYDYWGQGTQVTVSS | low polyreactivity
QVQLVDSGGGLVQAGGSLRLSCAASGFTITRNVMGWYRQAHGKERELVAAITSGGNTNYADSVKGRFTISRDNAKNTVYLQMNSLKPEDTAVYYCATSYHRRYDYWGQGTQVTVSS | low polyreactivity
QVQLVESGGGLVQERGSLRLSCAASGSIFFPYAMGWSRQAPGKDRELVAAITRGGNTKYADSVKGRFTISRDNAKNTVYIQMNSLKPEDTAVFYCAARGASIPYGYWGQGTQVTVSS | high polyreactivity
QVQLVESGGGLVQAGGSLRLSCAASGRIFSDNAMGWYRQAPGKERELVATINYSGGSTYYADSVKGRFTISRDNAKNTVYLQMNSLKPEDTAVYYCATRIPHRINYYDYDYWGQGTQVTVSS | low polyreactivity
QVQLVESGGGLVQAGGSLRLSCAASGRTFYPYDLGWYRQEPGKERELVAAIRENGGSTYFADSVKGRFTISRDNAKNTVYLQLTSLKPEDNAVYYCAARNTRYWRYEYWGLGTQVTVSS | high polyreactivity
QVQLVESGGWLVQAGGSLRLRCAASGRIFSRYAMGWYRQAPGKEWELVAAISWSGGSTYYADSVKGRFTISRDNAKNTVYLQMNSLKPEDTAVYYCAAKRQYTEYNYWGQGSQVTVSS | high polyreactivity
QVQLVESGGGLVQAGGSLSLSCAASGSTFSVYAMGWYRQAPGKERELVAAITRSGGSTYYADSVKGRFTISRDNAKNTVYLQMNSLIAEDSAVYYCNAEWYYVWFITTYWLDQYGYWGQGTQVTVSS | low polyreactivity
QVQLVESGGGLVQAGGSLRLSCAASGITFYTYVMGWYRQAHGKERELVAAITNADSTYYADSVKGRFTISRDNAKNTVYLQMNSLKPEDTAVYYCAADWYWGGIVDSWGQGTQVTVSS | high polyreactivity

— the nanobody polyreactivity screen of Harvey et al. (2022)
